Source: the supplement of paper PMC9170038

Test system: MS2 coat protein
Assay: apparent KD of MS2 coat protein; designed switch direction (-1 OFF switch, 1 ON switch): -1; higher = weaker reporter binding
Method in brief: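 Designed RNA switches sharing common flanks were transcribed on Illumina chips by stalled E. coli RNA polymerase. They were titrated with SNAP-549-labelled MS2 coat protein, from 0.7 or 1.5 nM doubling to 3 µM, in Tris-HCl pH 7.5 buffer with KCl, MgCl2, BSA, DTT, tRNA and Tween-20. Titrations ran without input, with 200 uM small-molecule ligand, or with an oligonucleotide input. The apparent KD of each design is the median over its clusters, after curve-fitting of normalised cluster fluorescence.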

[1] = Eterna round: R95, input ligand: microRNA oligo, concentration not stated
[2] = Eterna round: R95, input ligand: FMN 200 uM
[3] = Eterna round: R95, input ligand: none
[4] = input ligand: microRNA oligo, concentration not stated

## AAAUAGCAUGAGGAUAUUGGACUGUAUUCAGUACGAGAAGGCAUGACAUGAGGAUCACCCAUGUUUUGUUGGGA [EX6 #6] (Eterna round: R97, puzzle: Exclusion 6)
Input ligand: FMN 200 uM
  apparent KD of MS2 coat protein: 0.222 µM
Input ligand: none
  apparent KD of MS2 coat protein: 0.0675 µM

## GUGUACAGAGGAUAUACUUGAAUCUAGCGAAGCUAGGUUUGACAUGAGGAUCACCCAUGUAGAAGGCUGUACAC [Dot plot directed A v1] (puzzle: Exclusion 2)
[1]
  apparent KD of MS2 coat protein: 0.0137 µM

## AUAAUGUGAGGAUAUCAGUCGUACAGCGAUAGCUGUACGACUGAGAAGGCACAUGAGGAUCACCCAUGUGGUCA [E4/5-A4] (Eterna round: R97, puzzle: Exclusion 4)
Input ligand: FMN 200 uM
  apparent KD of MS2 coat protein: 0.162 µM
Input ligand: none
  apparent KD of MS2 coat protein: 0.562 µM

## GAGAAACAUGAGGAUCACCCAUGUAAGGAUAUGCUGAAAAUCACGGAUUAAUCGUGCAGCAGAAGGUACAAAGG [Mat - Mod of my Eli Mod D42] (puzzle: Exclusion 1)
[2]
  apparent KD of MS2 coat protein: 0.142 µM
[1]
  apparent KD of MS2 coat protein: 0.11 µM
[3]
  apparent KD of MS2 coat protein: 0.143 µM

## UAUAUGUCAGGAUAUUGUUAAUUUAGUUGUUUGUAUUAGUUCGAGAAGGGACAUGAGGAUCACCCAUGUUGUUU [Ex4 #57] (Eterna round: R97, puzzle: Exclusion 4)
Input ligand: FMN 200 uM
  apparent KD of MS2 coat protein: 0.0288 µM
Input ligand: none
  apparent KD of MS2 coat protein: 0.0296 µM

## UGAGACUGAGGAUAUACUAGACUACAAAGUAGUCAGUGGGUACAUGAGGAUCACCCAUGUAGAAGGCAGCCUCG [Omei Repeat Sequence v1] (Eterna round: R97, puzzle: Exclusion 2)
Input ligand: FMN 200 uM
  apparent KD of MS2 coat protein: 0.289 µM
Input ligand: none
  apparent KD of MS2 coat protein: 0.0359 µM

## CAGUACUGAGGAUAUACAUGAGGAUCACCCAUGUGUUCCAGCUAGGAAACUAGCAUAAGUAGAAGGCAGUACUG [salish99_ex3_r3_091x] (puzzle: Exclusion 3)
[1]
  apparent KD of MS2 coat protein: 0.0218 µM

## CUAUUACGAGGAUAUGAUUUAAAUAACAUGAGGAUCACCCAUGUUUUUACGUUAUUUUAUUUAGAAGGCGUAUAGU [JR_E5_Sub029] (puzzle: Exclusion 5)
[1]
  apparent KD of MS2 coat protein: 0.042 µM

## AAGUAUAGAGGAUAUAGUGAGUACUACAUGAGGAUCACCCAUGUUCUUCAAAACGUAUUUCUAGAAGGCUGUUAAA [EX-5 Malc#20] (puzzle: Exclusion 5)
[1]
  apparent KD of MS2 coat protein: 0.0435 µM

## AGCUAGUGCCGAGGAUAUACAUGAGGAUCACCCAUGUAAGCCAGUCGGUUUCUGACUGGCAAUAUGUAGAAGGCGGCGUUGGCA [JL ENG2 1.49] (Eterna round: R96, puzzle: Exclusion NG 2)
Input ligand: FMN 200 uM
  apparent KD of MS2 coat protein: 0.0482 µM
[4]
  apparent KD of MS2 coat protein: 0.0113 µM
Input ligand: none
  apparent KD of MS2 coat protein: 0.0166 µM

## CUUCGACAUGAGGAUCACCCAUGUCAGGAUAUUGUGUAUCGGGUUUUUUACGGAUAGGCAAGAAGGGAUGUGUG [LRO-Excl1-06] (puzzle: Exclusion 1)
[1]
  apparent KD of MS2 coat protein: 0.0327 µM

## ACACAACAUGAGGAUCACCCAUGUCAGGAUAUGCAGAAGAAGAAGAAGAGAAGAGAGAGCAGAAGGGACAACAC [Ex 1 M3] (puzzle: Exclusion 1)
[2]
  apparent KD of MS2 coat protein: 0.0417 µM
[1]
  apparent KD of MS2 coat protein: 0.03 µM
[3]
  apparent KD of MS2 coat protein: 0.0335 µM

## AGCGAUUCAGGAUAUACGGGUGGGCUGGAUCUUGGAGGAGUACAUGAGGAUCACCCAUGUAGAAGGGAAUUUUC [Eternabot (L2) Solution 35] (Eterna round: R97, puzzle: Exclusion 2)
Input ligand: FMN 200 uM
  apparent KD of MS2 coat protein: 0.0955 µM
Input ligand: none
  apparent KD of MS2 coat protein: 0.0402 µM

## UUUAGUGGUAAGGAUAUCCUUGAGAAAGAAAGAGGAGAAGGUACCACAUGAGGAUCACCCAUGUGGCUCUUUUA [jl-ex6-4.58 Nando mod] (Eterna round: R97, puzzle: Exclusion 6)
Input ligand: FMN 200 uM
  apparent KD of MS2 coat protein: 0.0327 µM
Input ligand: none
  apparent KD of MS2 coat protein: 0.0182 µM

## ACAAAGGACAUGAGGAUCACCCAUGUGGUGCACAAGUCCAGCAAGGAUAUCCAAGUCCCAUAAACGGAGAAGGUGCAUAAUAAG [Inesxeed] (Eterna round: R96, puzzle: Exclusion NG 3)
Input ligand: FMN 200 uM
  apparent KD of MS2 coat protein: 0.283 µM
[4]
  apparent KD of MS2 coat protein: 0.0866 µM
Input ligand: none
  apparent KD of MS2 coat protein: 0.113 µM

## GAGGCAUGCCGAGGUCCACACAUGAGGAUCACCCAUGUAAUGACAGGCUUUUUACUCGUUUUACCGCUAUCGCGUUC [Gedied] (puzzle: Sensor v3, turn-off variant 1)
[2]
  apparent KD of MS2 coat protein: 0.0149 µM
[1]
  apparent KD of MS2 coat protein: 0.0217 µM
[3]
  apparent KD of MS2 coat protein: 0.0127 µM

## GCUGGUCGAGGAUAUACAUGAGGAUCACCCAUGUGAUUAGCAGUCCUCGGACUGCAAUGUAGAAGGUGACCAGC [E3/2-B1] (Eterna round: R97, puzzle: Exclusion 3)
Input ligand: FMN 200 uM
  apparent KD of MS2 coat protein: 0.907 µM
Input ligand: none
  apparent KD of MS2 coat protein: 0.198 µM

## AAUUAUUGAUGAGGAUAUUGUGGUGAAACACCACAAGAAGGCAUUAUACACAUGAGGAUCACCCAUGUGAGCCUGAUGCAUAUA [Ex NG1 #56] (Eterna round: R96, puzzle: Exclusion NG 1)
[4]
  apparent KD of MS2 coat protein: 0.0132 µM

## AAAGGACGAGGAUAUACAUGAGGAUCACCCAUGUAAGAAGCAUAAUAAAAUAACUUAUGUAGAAGGCGUCCAAA [Mat - Exclusion 3 - Eli mod - D94] (Eterna round: R96, puzzle: Exclusion 3)
[4]
  apparent KD of MS2 coat protein: 0.017 µM

## AGCAGACGAGGAUAUGAUUAAUAAUACAUGAGGAUCACCCAUGUAAUACUGAUCUAUGGAUCAGAAGGCGUCUGCU [E5/6-A2] (Eterna round: R97, puzzle: Exclusion 5)
Input ligand: FMN 200 uM
  apparent KD of MS2 coat protein: 0.012 µM
Input ligand: none
  apparent KD of MS2 coat protein: 0.0166 µM

## UUGAAGAUAGGAUAUACGAGGAGAGGAGAGAGAAGGUGAGGACAUGAGGAUCACCCAUGUAGAAGGAUCAGGAA [JR_Exclu2_Sub065] (puzzle: Exclusion 2)
[1]
  apparent KD of MS2 coat protein: 0.0754 µM

## UUGUUGUAUGUAGGAUAUGCAUAUUGUUAUUAUGCAGAAGGACAUGAGGAUCACCCAUGUAUGUUAUUAUUAUGUGUUAUGUGU [Title] (Eterna round: R96, puzzle: Exclusion NG 1)
[4]
  apparent KD of MS2 coat protein: 0.0303 µM

## CCGGAAAUAGAGGAUAUCGUAUCGGAUACGAUACGAGAAGGCUGUACAUGAGGAUCACCCAUGUGUCCUACCGG [Fiskers Ex 6 - 58] (puzzle: Exclusion 6)
[1]
  apparent KD of MS2 coat protein: 0.0113 µM

## GCUAGAGCAGGAUAUCGAGAUCCGCACAUGAGGAUCACCCAUGUACGGUCGAAAGACCGACGAGAAGGGCUCUAGC [Omei Ex5 E10] (Eterna round: R97, puzzle: Exclusion 5)
Input ligand: FMN 200 uM
  apparent KD of MS2 coat protein: 0.178 µM
Input ligand: none
  apparent KD of MS2 coat protein: 0.186 µM

## UGGUCACAUGAGGAUCACCCAUGUCAGGAUAUCGUCACUGGAGCUGCGGCUCCAGUGACGAGAAGGGACAUAAU [E1/6-A3] (Eterna round: R97, puzzle: Exclusion 1)
Input ligand: FMN 200 uM
  apparent KD of MS2 coat protein: 0.162 µM
Input ligand: none
  apparent KD of MS2 coat protein: 0.253 µM

## AGCGCCAUCGUGAGAUGGCGUAUUACAUGAGGAUCACCCAUGUAGGAUAUCGAUUGCUUUGCAGUCGAGAAGGGCAUGUUCUAG [JL ENG3 3.80 Mod G] (Eterna round: R96, puzzle: Exclusion NG 3)
Input ligand: FMN 200 uM
  apparent KD of MS2 coat protein: 0.0824 µM
[4]
  apparent KD of MS2 coat protein: 0.0358 µM
Input ligand: none
  apparent KD of MS2 coat protein: 0.0736 µM

## UUUAAUUUUUUUUUUUUACAAGCUUUUUGCUCGUCUUAUACAUGAGGAUCACCCAUGUAGAUGGAGGGUAAAUUAUC [JMF 86] (puzzle: Sensor v3, turn-off variant 2)
[2]
  apparent KD of MS2 coat protein: 0.0174 µM
[1]
  apparent KD of MS2 coat protein: 0.0279 µM
[3]
  apparent KD of MS2 coat protein: 0.0145 µM

## AUGAUAUAACAGGAUAUUUGGCGCGGAUGCAGAGAAGAAGGGUUGACAUGAGGAUCACCCAUGUGAUCCUUCAA [Eternabot (L1) Solution 18] (Eterna round: R97, puzzle: Exclusion 6)
Input ligand: FMN 200 uM
  apparent KD of MS2 coat protein: 0.0201 µM
Input ligand: none
  apparent KD of MS2 coat protein: 0.0143 µM
